Laboratory results as given in the DeepSol protein solubility set.

assay: soluble on expression in E. coli; label from the status in PepcDB or PDB records

Sequence	soluble on expression in E. coli
MAHHHHHHMVKGDCIRAAHLLIKFDGSRNCVSHRTGKSTADLTYDAALAELKQWAKRIADGEITFEDAARQRSDCGSYNSGGDLGFFGPGVMMKPFEDAARSLNVGEVSGVVRTESGLHIIKRLA	soluble
MQRNSENSKNGRRVSSSSYMSAAAAAGAAAALRLSVDARAGKEYTTQTHQRDKT	not soluble
MCVVIFLKFLFSDNGNNQHGTEAAFGRLAQSYRIQDLLFIIVIFFRAIHIMMFHRPPSARPPLNHVDQLKSLQATALGKPGMRSQATEPQPIGNTVSPLEFRIHDMNRRLYIFSSTGVSENDQQQWWDAFSHEFFDDDCKLWFVIGSEPVAFASRERYIINRQFIPKFFRSIFDSGMRELQYVLRGPSRECTLANGSQAYENENVLQITRYDQSSQFEVNTEGKLYVEFAPFDEVMNYRIKAWTLELKRSNEFVYNQNTADYRVEAQNPEQENKPRMGFFKSTFNLMTMLKILDPMQSIMSSAKSAPAITPREVMKRTLFQHHQVRQQNMRQQQLNQQMMIPAPEPEKPKPARKRQRKPAANPRGSKKATAAAAAAAAAATNGVPPTVPTASPANNQQFPPNPMTSQFQQMSYPDVMVVGEPSMMGSEFGENDERTISRVENSQYDPNAMQMQSLGQGPNSSMNINGRNMMNQHHPGMQPPPGQQHMPPHSMGSQMPTSMHNPMHMPPGSMQGHGGMPPMPSTMANQMPPPNLPPHTMSNQMPNSRMPPMQGQMPPSGMPGQMSNPNMMGSGMPPMSMSSQMPGSMSNPMPNQMPGGMQMNQMPPPNYSQYTGGPPPQWPPPNSAMITG	not soluble
MSLTQREEELARVLSGPEFATIRPDDLSVLDYSLLTLRRARLLNGAGFAANSLWLGRGDSARFPEFLRTMGWIGAYDLSLLNVLVSHQIAGDALLSHGGPEQLDAWAGEIDAMERMYCFAGSELLAGSDLKRVRTTAVYDPHGRSLVLNTPRPADSKVWTGNSLHTGDVAMVLARLEVGGRDEGHHWLRVPLREAGAVLPGVRIGRAEPKGGVTANQTGVLTFTDHRLPLSALMNRWASIDEDGTYRSPLPRHRRFEECLATFTHERLFPSVGAAYAQLLACTITTRFAAVKQTFGRPLIGHEHYRMRLSAAVGRSLAARHAMTALAEVAVARSAEGAPARDQVLHALISCGKSGCTGDARQTLAETRELCGGLGYHDANQIAPLLHDYEIAVTFGGDNTVLGYQATRFALREGHHHHHH	not soluble
MDNKTYEISSAEWEVMNIIWMKKYASANNIIEEIQMQKDWSPKTIRTLITRLYKKGFIDRKKDNKIFQYYSLVEESDIKYKTSKNFINKVYKGGFNSLVLNFVEKEDLSQDEIEELRNILNKK	soluble
MRRGLAWVGALLLLGGCVSSRPIDEIQIIQQMGYDFENGRYTGTAVYPTFKQGPMTKPNMLTTTSPTIYDLIPRLSSKSALPIEEGQLRLILFGKEFARRGVTQITHSLARNNKVGSHLLLGVAEESAKELLKITAKTTLSDTLYLPNLVEQNEQSMNLPKTNLHLFLYRYFSPGSDPFLPYFEKKGDFVKLEGVALFRDDQYVGHVSLRDSFLMKILLGETKNGVYQLKVGNRGKQGEDRVMLQNLWAKPKYAWKRDGSRHVLDVFIHIHASVRDYPSWLDQPGGDLFADVKKKMQNELEHNMRRLFRYFQKKRIDPLGIGDFVRSVTRHWDSDAFYREYPDLDIRPHVTVDIVHTGIGE	not soluble
MSLTNNVIHLIPEIERILRIKYDDKQKELFYKINENNILVLTGFAGTGKSSVLNGLLNLFDKKNITYKLMSPTAKAAKRMEECTGKKASTIHRALGLAEGKFLVNEKNPFAEDVIIIDETSMVDIYLFLAVLKGIKNTTKLLCLGDYGQLESISAGNVLFDMIQGGIPCVKLEKIFRQKEDSSLLNVITNIRNGDNPLKNTHKTYLELGRDCKFWLGKKEQTLSRVLLCYKECLKHFSREDIMVLCPMKKGNSGVNKLNQELQKIANSQNTEELKLKDCAYKKEDLVMHIKNDYNANIFSEDCKDTIAKGIFNGDAGKIEKIDLENQKLYVSYDSGIVEYDNSNLNELMLSYALTIHKVQGSQSKVVIVALDMSHYKMLKRSLLYTAASRCVELLIFICDPKAFSIALNNNQVTHKNTFLGELLKISEGHHHHHH	not soluble
SATPLDNCLRPFPDPMVKVTAETKKISEVSSYVSANNKKNSFWGSGLLYPVALLRCQDCWAGHQTHVLSKEFTSYFSSGAGREAQHQPSAVLGSLIWLRRVYLLRAMVVHGGSQPCQRWLVIRMEVGGHPSFPGHAWLTFHLN	soluble
MQRVAISTLGCKINQFESAAMTESLGREGFRVVPFDEDADIYVINTCTVTAKTDAESRRLIRRALRRNPAARVVVTGCYAQVAPDAVKDLPGVALVVGNSEKRSIGELLRDAAPAEKVMVSDISRERTAEGLRLESFAEHTRAFLQVQNGCDAFCSYCIVPYARGRSRSVSFSEALAGIRNFAAQGFREVVLTGIHLGAYGLDLAPPTNLLALLEASEAEKAVPRLRVGSVEPNELTDALVDFLARSETVCPHLHIPLQSGDDRVLERMGRRYTAAFFRERVERLVAVVPDIFIGCDVIAGFPGETDEEFQNTVRLIEELPVASLHVFPYSRREGTAAARMEGQVDGKVIRGRAEILREVGERKRRSFCERFVGRELAVLMQNRGRDGEAVGLSRNYLPVRVPGYAGEMNAEATVMVTEVTPDGVGGIIRGLEHHHHHH	soluble
MKEVMLFPLTSVVLPEGKMNLRIFEPRYKRMVKECSLQNVGFGVCLVGSEGDPKDVGNVSSIGTLVRIVDFETLSDGLLGITVAGEKRFVIKRVRADSDGLRHAEVEWLDNWQTPSQQLDFGYLSQQLAQVYEQFPQLGTLYQHRFYDDPIWVTQRWLELLPLDSHLFESLVGAQDCRPALRFLNQAIEAPSNKEARILEHHHHHH	soluble
MSGLQGKIADAVKARGYQIMTSPDKAYYWIQANVLKADKMDLRESQGWLSRGYEGAAVGAALGGGITAYNTGSAGTTLGVGLATGLIGMAADAMVEDINYTMITDVQIAERTRTSVRTDNVAALRQGTSGSKIQTSTETGNQHKYQTRVVSSANQVNLKFEEAKPHLEDQLAKSIANIL	not soluble
GMRKDDVVIVTCAITGAIHTPSMSPYLPVTPDQIVEEAVKAAEAGAGMVHIHARDPKDGRPTTDVEVFRYICREIKKQSDVVINVTTGGGGTLGIPVEERAKVVPALKPEIATFNMGSMNFAIHPLLKKYKEFKYDWEPEYLEMTRDIVFRNTFKDLEALSRIFKENDTKPELECYDIGQIYNTAFMFHEGYLEPPLRLQFIHGILGGIGTAVEDVLFMKQTADRLIGRENYTWSLVGAGRFQMPLGTLAVIMGGDVRVGLEDSLYIERGKLAKSNAEQVEKMVRIVKELGKRPATPDEVREILGLKGKERVNF	soluble
MGSDKIHHHHHHEEQKVCHMDDECVEVGQWQLGLALGYGERSNPVRDYDDIPIYLAPTLAYYGDRWFFDNGNLGYTLADEELFSVNLTTSFSSDSAYFYRWDPSNIFISGTSQLSSTPSAFTSRFQAFGAEPEPVFNELEDRKFTLLGGAEAFIYTPMGIINLALAHDLFDVHSGMEAKVKWLYNLSWTDWKFEFAAVANWKSEEIINYYYGVRPSENTYWSERYRAGSGTNLGLELTTQYIMSEHWELLFLVRYTDLADEITASPLVTESYTNTYFIGTAYRF	not soluble
AHHHHHHGSKIKRKIYWTKEFDSSHLLDLPYESKCKRIHGHTYRIEIEIYGDINEQGMIFDFNHLSDLIKELDHKIIVSKNWIEEREEFIVVKKNQKTLEIPRSEVVVIDKPNVTAEYLAEWFVEKILEKADKNIYEIKVRVWEDPRSYAEVTLELQGS	soluble
MGSDKIHHHHHHMTEIKYKVITKDAFALPYTIIKAKNQPTKGVIVYIHGGGLMFGKANDLSPQYIDILTEHYDLIQLSYRLLPEVSLDCIIEDVYASFDAIQSQYSNCPIFTFGRSSGAYLSLLIARDRDIDGVIDFYGYSRINTEPFKTTNSYYAKIAQSINETMIAQLTSPTPVVQDQIAQRFLIYVYARGTGKWINMINIADYTDSKYNIAPDELKTLPPVFIAHCNGDYDVPVEESEHIMNHVPHSTFERVNKNEHDFDRRPNDEAITIYRKVVDFLNAITMV	not soluble
